Consider one molecule from US9957308B2, “Method for detecting bilirubin using a fluorescent protein” (RIKEN, priority 2013, dated 2018).

Some results are limits rather than exact numbers.

In one series the test system is mammalian cell HEK293T. Nature of the series: Expression of recombinant UnaG protein in mammalian cells, fluorescence microscopy. The series is classed as cell-based. Particulars: fluorescence microscope. The text has this:
DNA to be inserted to an expression vector for mammalian cell was amplified by PCR using full-length cDNA of the UnaG gene of SEQ ID NO: 2 as template DNA, a sense primer (SEQ ID NO: 24), and an antisense primer (SEQ ID NO: 25). A FLAG-tag sequence (SEQ ID NO: 26) was inserted into the KpnI restriction enzyme site and the BamHI restriction enzyme site of expression vector pcDNA3 (Invitrogen) for mammalian cell, and the amplified DNA fragment was ligated to the BamHI restriction enzyme site and the EcoRI restriction enzyme site of the resulting pcDNA3-FLAG vector and transformed into Escherichia coli strain DH5α for cloning. The vector was extracted from Escherichia coli and was purified. The sequence was confirmed by DNA sequence analysis. Thus, a UnaG expression vector (pcDNA3-FLAG-UnaG) for mammalian cells was constructed. […]
After the expression of protein, the medium was removed from each dish, and the cells were rinsed with PBS. […] The purified FLAG-UnaG protein (holo form) was irradiated with a UV transilluminator for verifying whether fluorescence was present or not. […]
FIG. 1 includes diagrams showing expression of recombinant UnaG protein in Escherichia coli and mammalian cells. […] The diagram (c) includes a differential interference image and a fluorescence image by observation of mammalian cell HEK293T expressing recombinant UnaG protein under a fluorescence microscope. […]

Series [1] in a line: Detection of unconjugated bilirubin in human serum by apo UnaG fluorescence. Particulars: apo UnaG added to 200-fold diluted human serum, room temperature, 527 nm. On the procedure: Blood (5 mL) was collected in a vacuum sealed blood collection tube (Neo-Tube, NIPRO) from a vein of the arm using a needle of 23G (Terumo Corporation) and a 5-mL cylinder (Terumo Corporation). The collected blood was shielded from light and was left to stand at room temperature for 30 min and was then centrifuged at a rotation speed of 3,000 rpm for 20 min (KUBOTA K-80) to collect about 2.5 mL of serum. The collected serum was cooled with ice while being shielded from light and was promptly subjected to measurement of bilirubin.
Apo UnaG was added to the serum diluted with PBS by 200-fold so as to give a final concentration of 0.5 μM, and 200 μL of the mixture was added to each well of a 96-well microplate (black, non-binding, Greiner Bio-One). Measurement of fluorescence was started immediately after the addition of samples to the plate. The fluorescence intensity was measured at room temperature at every 10 min for 1 hr at a fluorescence wavelength of 527 nm (excitation wavelength: 497 nm) using EnSpire (trademark) multi-mode plate reader (PerkinElmer Co., Ltd.). Each serum was measured using three wells, and the serum not mixed with apo UnaG protein was also measured as background. The net fluorescence intensity was determined by subtracting the intensity level of the background from the intensity level of the serum mixed with apo UnaG protein. […]

B1: UnaG: fluorescent polypeptide including the amino acid sequence of SEQ ID NO: 1, originally isolated from Japanese eel; fluoresces in the presence of bilirubin (protein, listed as Anguilla japonica)
chain: MVEKFVGTWKIADSHNFGEYLKAIGAPKELSDGGDATTPTLYISQKDGDKMTVKIENGPPTFLDTQVKFKLGEEFDEFPSDRRKGVKSVVNLVGEKLVYVQKWDGKETTYVREIKDGKLVVTLTMGDVVAVRSYRRATE
With B1, the “fluorescence of expressed protein in cells” value in the series on mammalian cell HEK293T is listed as “emitted fluorescence”. Besides, in series [1], the “time stable fluorescence lasts” value was no less than 1 h and the “time until stable fluorescence is generated” value is “about 10 min”.
